Here are results for 28 sequences from the supplement of paper PMC10724198.

± gives the standard deviation of the averaged measurements.

The test system of the data set is Saccharomyces cerevisiae. Put plainly: protein stability index of tFT-peptide fusion (C-terminal peptide) (PSI (0-1 scale)); higher = more stable (slower turnover). To be noted: temperature: 30 C. The method, then: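 MPS profiling in S. cerevisiae of the yeast C-terminome library: the last 12 aa of each annotated ORF are fused to the C-terminus of a sfGFP-mCherry timer, after a GGGS linker. Cells are FACS-sorted into 8 mCherry/sfGFP bins and deep-sequenced. PSI runs from 0 (unstable) to 1 (stable); wild type and das1Δ backgrounds, two technical replicates each.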

Setting [1] is: genetic background: das1 deletion.

Consider SHLFFQLSCSLY [YLL044W C-terminal 12 aa], for which the protein stability index is, setting by setting: under setting [1], 0.685 ± 0.038; (genetic background: wild type) 0.736 ± 0.069.
For SIDETELAKWNE [PEP3 C-terminal 12 aa], in that order: 0.734 ± 0.063 and 0.7 ± 0.048.
For SIGLTNLFLYRV [YDR010C C-terminal 12 aa], in that order: 0.715 ± 0.0083 and 0.681 ± 0.01.
For SIRKKSKYAYAA [TPO1 C-terminal 12 aa], in that order: 0.703 ± 0.012 and 0.642 ± 0.021.
Regarding SKASLINKLIGN [NTR2 C-terminal 12 aa], the protein stability index under setting [1] came out at 0.685 ± 0.011 and the protein stability index (genetic background: wild type) was found to be 0.7 ± 0.013.
The sequence SKLNNGEIIVID [SRS2 C-terminal 12 aa] displayed a protein stability index under setting [1] of 0.685 ± 0.0081 and a protein stability index (genetic background: wild type) of 0.702 ± 0.047.
For SKNILSFFTRKK [RAD30 C-terminal 12 aa], in that order: 0.774 ± 0.025 and 0.673 ± 0.0077.
For SKNVPALHMGGL [PBS2 C-terminal 12 aa], in that order: 0.6847 ± 0.0027 and 0.6721 ± 0.0054.
SKPALGSCLYEL [GAL1 C-terminal 12 aa] came in with a protein stability index under setting [1] of 0.6989 ± 0.0023 and a protein stability index (genetic background: wild type) of 0.687 ± 0.012.
For SLGGDVHSRRCS [ROQ1 C-terminal 12 aa], in that order: 0.7013 ± 0.0028 and 0.662 ± 0.018.
For SLKTFINDVLSF [SLS1 C-terminal 12 aa], in that order: 0.7066 ± 0.0021 and 0.717 ± 0.029.
For SLLVEDGGNPTA [YPL150W C-terminal 12 aa], in that order: 0.695 ± 0.007 and 0.69 ± 0.026.
For the sequence SLMIFSSFFLYN [YOR139C C-terminal 12 aa], the protein stability index runs as follows: under setting [1], 0.6872 ± 0.001; (genetic background: wild type) 0.479 ± 0.02.
The sequence SLRGCKSVFRRI [HMI1 C-terminal 12 aa] registered a protein stability index under setting [1] of 0.663 ± 0.0076 and a protein stability index (genetic background: wild type) of 0.741 ± 0.029.
For SLSTFPFVYKYL [EST3 C-terminal 12 aa], in that order: 0.749 ± 0.019 and 0.127 ± 0.0095.
For SNEHSSENTAGP [STE3 C-terminal 12 aa], in that order: 0.696 ± 0.013 and 0.684 ± 0.014.
On to SNLALAGGAFRP [TAF5 C-terminal 12 aa], for which the protein stability index is, setting by setting: under setting [1], 0.711 ± 0.0013; (genetic background: wild type) 0.688 ± 0.016.
For SPEIDDSSLACH [CTR2 C-terminal 12 aa], in that order: 0.707 ± 0.0085 and 0.6821 ± 0.0044.
For SQMRPPSQGDKI [DAL82 C-terminal 12 aa], in that order: 0.714 ± 0.024 and 0.675 ± 0.023.
For SQMTKKRKTKKE [APN1 C-terminal 12 aa], in that order: 0.72 ± 0.015 and 0.786 ± 0.064.
Consider SQNGHTSGSENI [LSP1 C-terminal 12 aa], for which the protein stability index is, setting by setting: under setting [1], 0.6941 ± 0.005; (genetic background: wild type) 0.699 ± 0.03.
In the case of SQSFNPLESVQE [YPL229W C-terminal 12 aa], the protein stability index by setting is: under setting [1], 0.7038 ± 0.0039; (genetic background: wild type) 0.709 ± 0.1.
With SRIKNACLHRMN [RRN7 C-terminal 12 aa], the protein stability index amounted to 0.6966 ± 0.0047 under setting [1] and 0.681 ± 0.035 (genetic background: wild type).
For SRVYAYYLTHEK [NNT1 C-terminal 12 aa], in that order: 0.666 ± 0.007 and 0.67 ± 0.018.
For SSFEKFQYYSKA [AGP2 C-terminal 12 aa], in that order: 0.72 ± 0.024 and 0.688 ± 0.049.
In turn, SSLMVIHPLDDT [MID1 C-terminal 12 aa] displayed a protein stability index under setting [1] of 0.6918 ± 0.0012 and a protein stability index (genetic background: wild type) of 0.695 ± 0.006.
For SSSYNYNVHKLA [YDR278C C-terminal 12 aa], in that order: 0.6925 ± 0.0039 and 0.134 ± 0.013.
For STDEKRLVMSLK [IMH1 C-terminal 12 aa], in that order: 0.692 ± 0.042 and 0.709 ± 0.014.
